{
  "source": "paper PMC5052650",
  "about": "“Characterization of the DNA dependent activation of human ARTD2/PARP2”",
  "binders": {"B1": {"name": "oligonucleotide 18 (dsDNA)", "DNA 1": "GCCTTAGCGCGTATACGCGCTAAGGC", "DNA 2": "GCCTTAGCGCGTATACGCGCTAAGGC", "modifications": "5'-phosphate"}, "B2": {"name": "oligonucleotide 2 (structured_DNA)", "DNA": "GGAAGTTCTTTTGAACTTCCTCGAAGCTTTTGCTTCGA", "modifications": "5'-phosphate"}, "B3": {"name": "oligonucleotide 41 (labelled 2) (structured_DNA)", "DNA": "GGAAGTTCTTTTGAACTTCCTCGAAGCTTTTGCTTCGA", "modifications": "5'-phosphate"}, "B4": {"name": "oligonucleotide 38 (labelled 18) (dsDNA)", "DNA 1": "GCCTTAGCGCGTATACGCGCTAAGGC", "DNA 2": "GCCTTAGCGCGTATACGCGCTAAGGC", "modifications": "5'-phosphate"}, "B5": {"name": "oligonucleotide 6 (structured_DNA)", "DNA": "GGAAGTTCTTTTGAACTTCC", "modifications": "5'-phosphate"}, "B6": {"name": "oligonucleotide 39 (labelled 19) (dsDNA)", "DNA 1": "CCAGGACCAGGGCGCAGATCACCTTGTTCTCCA", "DNA 2": "TGGAGAACAAGGTGATCTGCGCCCTGGTCCTGG"}, "B7": {"name": "oligonucleotide 20 (dsDNA)", "DNA 1": "CCAGGACCAGGGCGCAGATCACCTTGTTCTCCA", "DNA 2": "TGGAGAACAAGGTGATCTGCGCCCTGGTCCTGG", "modifications": "5'-phosphate"}, "B8": {"name": "oligonucleotide 40 (labelled 20) (dsDNA)", "DNA 1": "CCAGGACCAGGGCGCAGATCACCTTGTTCTCCA", "DNA 2": "TGGAGAACAAGGTGATCTGCGCCCTGGTCCTGG", "modifications": "5'-phosphate"}, "B9": {"name": "oligonucleotide 42 (labelled 6) (structured_DNA)", "DNA": "GGAAGTTCTTTTGAACTTCC", "modifications": "5'-phosphate"}},
  "key": {"ARTD2FL [1]": {"biological_target": "T1, ARTD2FL (Homo sapiens, UniProt Q9UGN5 1-583)", "T1 sequence (Q9UGN5 whole entry)": "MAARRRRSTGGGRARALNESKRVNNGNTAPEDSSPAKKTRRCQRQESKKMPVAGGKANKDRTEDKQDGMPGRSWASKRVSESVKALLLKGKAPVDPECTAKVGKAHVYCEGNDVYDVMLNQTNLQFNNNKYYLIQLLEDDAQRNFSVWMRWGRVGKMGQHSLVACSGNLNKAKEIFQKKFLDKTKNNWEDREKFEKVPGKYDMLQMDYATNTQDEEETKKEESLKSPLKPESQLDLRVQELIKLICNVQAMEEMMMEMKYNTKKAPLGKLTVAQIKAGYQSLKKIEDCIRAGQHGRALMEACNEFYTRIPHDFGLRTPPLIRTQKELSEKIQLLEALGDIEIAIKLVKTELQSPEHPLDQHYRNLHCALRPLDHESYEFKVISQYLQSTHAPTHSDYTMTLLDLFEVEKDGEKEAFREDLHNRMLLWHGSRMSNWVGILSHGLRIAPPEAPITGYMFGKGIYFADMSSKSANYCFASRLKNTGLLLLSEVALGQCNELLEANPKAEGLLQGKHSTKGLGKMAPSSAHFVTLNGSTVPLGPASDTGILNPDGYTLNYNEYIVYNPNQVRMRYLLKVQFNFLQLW", "assay": "EMSA; no free DNA only after 4:1; FP: 10 mM Hepes pH 8.0, 150 mM NaCl, 0.1 mM TCEP, 0.1 mM EDTA, 10% glycerol, 25 C, 5 nM DNA (250 nM for stoichiometry); EMSA: 50 mM Hepes, 300 mM NaCl, 0.1 mM EDTA, 10% glycerol, 0.1 mM TCEP, on ice, 1 uM DNA; SEC-SAXS: 20 mM Hepes pH 7.5, 300 mM NaCl, 5% glycerol", "conditions": "protein: recombinant; tags: His6-thioredoxin removed by TEV (QS left); blunt, palindromic, 2 copies"}, "ARTD2FL [2]": {"biological_target": "T1, ARTD2FL", "assay": "EMSA; some free DNA even at 4:1; FP: 10 mM Hepes pH 8.0, 150 mM NaCl, 0.1 mM TCEP, 0.1 mM EDTA, 10% glycerol, 25 C, 5 nM DNA (250 nM for stoichiometry); EMSA: 50 mM Hepes, 300 mM NaCl, 0.1 mM EDTA, 10% glycerol, 0.1 mM TCEP, on ice, 1 uM DNA; SEC-SAXS: 20 mM Hepes pH 7.5, 300 mM NaCl, 5% glycerol", "conditions": "protein: recombinant; tags: His6-thioredoxin removed by TEV (QS left); nicked dumbbell, two hairpins, 1 strand"}, "ARTD2FL [3]": {"biological_target": "T1, ARTD2FL", "assay": "fluorescence polarization; Kd range 10-63 nM over oligos; 1:1 to 4:1; FP: 10 mM Hepes pH 8.0, 150 mM NaCl, 0.1 mM TCEP, 0.1 mM EDTA, 10% glycerol, 25 C, 5 nM DNA (250 nM for stoichiometry); EMSA: 50 mM Hepes, 300 mM NaCl, 0.1 mM EDTA, 10% glycerol, 0.1 mM TCEP, on ice, 1 uM DNA; SEC-SAXS: 20 mM Hepes pH 7.5, 300 mM NaCl, 5% glycerol", "conditions": "protein: recombinant, tags: His6-thioredoxin removed by TEV (QS left), label: fluorescein"}, "ARTD2WGR+CAT": {"biological_target": "ARTD2WGR+CAT (Homo sapiens, UniProt Q9UGN5 71-583)", "sequence (Q9UGN5 71-583)": "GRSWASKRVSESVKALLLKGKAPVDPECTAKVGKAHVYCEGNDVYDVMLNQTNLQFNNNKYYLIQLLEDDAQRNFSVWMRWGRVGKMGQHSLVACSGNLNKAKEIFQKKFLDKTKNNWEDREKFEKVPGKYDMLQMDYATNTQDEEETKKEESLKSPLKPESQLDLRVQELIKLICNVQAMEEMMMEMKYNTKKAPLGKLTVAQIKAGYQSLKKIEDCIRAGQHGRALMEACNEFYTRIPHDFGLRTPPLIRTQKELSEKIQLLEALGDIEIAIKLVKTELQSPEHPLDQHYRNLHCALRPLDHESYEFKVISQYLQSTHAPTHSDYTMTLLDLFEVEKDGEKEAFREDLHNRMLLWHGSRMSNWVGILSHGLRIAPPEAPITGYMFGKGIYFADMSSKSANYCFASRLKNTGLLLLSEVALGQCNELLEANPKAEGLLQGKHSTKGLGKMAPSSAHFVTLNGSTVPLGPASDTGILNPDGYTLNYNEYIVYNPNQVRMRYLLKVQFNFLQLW", "assay": "EMSA; FP: 10 mM Hepes pH 8.0, 150 mM NaCl, 0.1 mM TCEP, 0.1 mM EDTA, 10% glycerol, 25 C, 5 nM DNA (250 nM for stoichiometry); EMSA: 50 mM Hepes, 300 mM NaCl, 0.1 mM EDTA, 10% glycerol, 0.1 mM TCEP, on ice, 1 uM DNA; SEC-SAXS: 20 mM Hepes pH 7.5, 300 mM NaCl, 5% glycerol", "conditions": "protein: recombinant; tags: His6-ZB removed by TEV (QS left); hairpin, blunt"}, "ARTD2CAT": {"biological_target": "ARTD2CAT (Homo sapiens, UniProt Q9UGN5 235-583)", "sequence (Q9UGN5 235-583)": "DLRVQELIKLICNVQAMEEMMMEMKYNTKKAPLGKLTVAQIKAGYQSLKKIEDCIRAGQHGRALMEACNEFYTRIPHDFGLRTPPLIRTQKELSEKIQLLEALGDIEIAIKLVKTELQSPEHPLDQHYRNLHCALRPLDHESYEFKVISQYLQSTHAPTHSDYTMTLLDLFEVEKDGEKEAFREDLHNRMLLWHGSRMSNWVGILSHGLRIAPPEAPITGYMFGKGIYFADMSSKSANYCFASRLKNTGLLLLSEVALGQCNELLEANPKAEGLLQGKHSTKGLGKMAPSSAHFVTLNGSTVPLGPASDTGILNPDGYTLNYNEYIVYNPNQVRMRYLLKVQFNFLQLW", "assay": "EMSA; FP: 10 mM Hepes pH 8.0, 150 mM NaCl, 0.1 mM TCEP, 0.1 mM EDTA, 10% glycerol, 25 C, 5 nM DNA (250 nM for stoichiometry); EMSA: 50 mM Hepes, 300 mM NaCl, 0.1 mM EDTA, 10% glycerol, 0.1 mM TCEP, on ice, 1 uM DNA; SEC-SAXS: 20 mM Hepes pH 7.5, 300 mM NaCl, 5% glycerol", "conditions": "protein: recombinant; tags: His6 removed by TEV (SM left); hairpin, blunt"}, "ARTD2FL [4]": {"biological_target": "T1, ARTD2FL", "assay": "EMSA; no free DNA above 2:1; FP: 10 mM Hepes pH 8.0, 150 mM NaCl, 0.1 mM TCEP, 0.1 mM EDTA, 10% glycerol, 25 C, 5 nM DNA (250 nM for stoichiometry); EMSA: 50 mM Hepes, 300 mM NaCl, 0.1 mM EDTA, 10% glycerol, 0.1 mM TCEP, on ice, 1 uM DNA; SEC-SAXS: 20 mM Hepes pH 7.5, 300 mM NaCl, 5% glycerol", "conditions": "protein: recombinant; tags: His6-thioredoxin removed by TEV (QS left); hairpin, blunt"}, "ARTD2FL [5]": {"biological_target": "T1, ARTD2FL", "assay": "fluorescence polarization; affinity similar to oligo 40; FP: 10 mM Hepes pH 8.0, 150 mM NaCl, 0.1 mM TCEP, 0.1 mM EDTA, 10% glycerol, 25 C, 5 nM DNA (250 nM for stoichiometry); EMSA: 50 mM Hepes, 300 mM NaCl, 0.1 mM EDTA, 10% glycerol, 0.1 mM TCEP, on ice, 1 uM DNA; SEC-SAXS: 20 mM Hepes pH 7.5, 300 mM NaCl, 5% glycerol", "conditions": "protein: recombinant; tags: His6-thioredoxin removed by TEV (QS left); label: fluorescein"}, "ARTD2FL [6]": {"biological_target": "T1, ARTD2FL", "assay": "EMSA; FP: 10 mM Hepes pH 8.0, 150 mM NaCl, 0.1 mM TCEP, 0.1 mM EDTA, 10% glycerol, 25 C, 5 nM DNA (250 nM for stoichiometry); EMSA: 50 mM Hepes, 300 mM NaCl, 0.1 mM EDTA, 10% glycerol, 0.1 mM TCEP, on ice, 1 uM DNA; SEC-SAXS: 20 mM Hepes pH 7.5, 300 mM NaCl, 5% glycerol", "conditions": "protein: recombinant; tags: His6-thioredoxin removed by TEV (QS left)"}, "ARTD2FL [7]": {"biological_target": "T1, ARTD2FL", "assay": "fluorescence polarization; affinity similar to oligo 39; FP: 10 mM Hepes pH 8.0, 150 mM NaCl, 0.1 mM TCEP, 0.1 mM EDTA, 10% glycerol, 25 C, 5 nM DNA (250 nM for stoichiometry); EMSA: 50 mM Hepes, 300 mM NaCl, 0.1 mM EDTA, 10% glycerol, 0.1 mM TCEP, on ice, 1 uM DNA; SEC-SAXS: 20 mM Hepes pH 7.5, 300 mM NaCl, 5% glycerol", "conditions": "protein: recombinant; tags: His6-thioredoxin removed by TEV (QS left); label: fluorescein"}, "ARTD2FL [8]": {"biological_target": "T1, ARTD2FL", "assay": "fluorescence polarization; Kd range 10-63 nM over oligos; binds as monomer (1:1); FP: 10 mM Hepes pH 8.0, 150 mM NaCl, 0.1 mM TCEP, 0.1 mM EDTA, 10% glycerol, 25 C, 5 nM DNA (250 nM for stoichiometry); EMSA: 50 mM Hepes, 300 mM NaCl, 0.1 mM EDTA, 10% glycerol, 0.1 mM TCEP, on ice, 1 uM DNA; SEC-SAXS: 20 mM Hepes pH 7.5, 300 mM NaCl, 5% glycerol", "conditions": "protein: recombinant; tags: His6-thioredoxin removed by TEV (QS left); label: fluorescein; hairpin, blunt"}},
  "data": [
    {"binder": "B1", "values": [
      {"measurement": "binding result", "setting": "ARTD2FL [1]", "value": "binds"}
    ]},
    {"binder": "B2", "values": [
      {"measurement": "binding result", "setting": "ARTD2FL [2]", "value": "binds"}
    ]},
    {"binder": "B3", "values": [
      {"measurement": "binding result", "setting": "ARTD2FL [3]; nicked dumbbell, two hairpins, 1 strand", "value": "binds"}
    ]},
    {"binder": "B4", "values": [
      {"measurement": "binding result", "setting": "ARTD2FL [3]; blunt, palindromic, 2 copies", "value": "binds"}
    ]},
    {"binder": "B5", "values": [
      {"measurement": "binding result", "setting": "ARTD2WGR+CAT", "value": "binds"},
      {"measurement": "binding result", "setting": "ARTD2CAT", "value": "no binding"},
      {"measurement": "binding result", "setting": "ARTD2FL [4]", "value": "binds"}
    ]},
    {"binder": "B6", "values": [
      {"measurement": "binding result", "setting": "ARTD2FL [5]", "value": "binds"}
    ]},
    {"binder": "B7", "values": [
      {"measurement": "binding result", "setting": "ARTD2FL [6]", "value": "binds"}
    ]},
    {"binder": "B8", "values": [
      {"measurement": "binding result", "setting": "ARTD2FL [7]", "value": "binds"}
    ]},
    {"binder": "B9", "values": [
      {"measurement": "binding result", "setting": "ARTD2FL [8]", "value": "binds"}
    ]}
  ]
}
